Data taken from patent US20250066490A1 (PROFOUNDBIO US, published 2025).

T1: CD70 ECD (antigen immobilized on the CM5 chip) (UniProt P32970 39-193)
T1 construct: extracellular domain; also called CD70 antigen
T1 sequence (looked up): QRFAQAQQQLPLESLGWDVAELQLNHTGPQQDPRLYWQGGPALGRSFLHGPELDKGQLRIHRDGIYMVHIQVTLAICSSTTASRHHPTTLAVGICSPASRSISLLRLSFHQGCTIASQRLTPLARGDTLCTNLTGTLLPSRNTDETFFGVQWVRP

T2: cynomolgus CD70 recombinant protein (cynomolgus, UniProt A0A2K5WTU9 39-190)
T2 construct: also called cyno-antigen; cynomolgus CD70 protein
T2 sequence: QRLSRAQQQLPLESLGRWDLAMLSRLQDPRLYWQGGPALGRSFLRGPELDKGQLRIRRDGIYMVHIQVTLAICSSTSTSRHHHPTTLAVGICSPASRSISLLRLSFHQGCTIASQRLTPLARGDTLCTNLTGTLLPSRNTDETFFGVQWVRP

T3: human CD70 expressed on the cell surface of tumor cell lines (human, UniProt P32970 1-193)
T3 sequence (looked up): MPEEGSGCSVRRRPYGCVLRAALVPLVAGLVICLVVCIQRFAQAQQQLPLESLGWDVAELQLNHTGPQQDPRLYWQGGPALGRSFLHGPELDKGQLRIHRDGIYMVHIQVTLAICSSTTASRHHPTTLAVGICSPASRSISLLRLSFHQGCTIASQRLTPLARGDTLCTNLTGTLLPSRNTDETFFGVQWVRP

T4: human CD70 extra-cellular domain (ECD) linked to His tag (human, UniProt P32970 39-193)
T4 construct: extracellular domain; also called Hu CD70; HU CD70; not shown: His tag
T4 sequence (looked up): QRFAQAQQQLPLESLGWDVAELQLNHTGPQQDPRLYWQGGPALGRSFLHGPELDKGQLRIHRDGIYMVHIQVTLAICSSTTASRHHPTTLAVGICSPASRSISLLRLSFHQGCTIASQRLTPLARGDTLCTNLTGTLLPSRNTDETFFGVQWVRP

T5: human CD70 recombinant protein (human, UniProt P32970 39-193, limits assumed)
T5 construct: May be the same reagent as ACRO CDL-H5246; also called CD70 protein
T5 sequence (looked up): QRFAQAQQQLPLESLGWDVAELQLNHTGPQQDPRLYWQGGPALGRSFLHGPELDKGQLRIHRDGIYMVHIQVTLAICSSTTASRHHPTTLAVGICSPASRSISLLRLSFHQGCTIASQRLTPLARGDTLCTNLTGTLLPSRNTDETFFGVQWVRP


What was measured:
[1] = target: T1, CD70 ECD (antigen immobilized on the …); assay: SPR (Biacore T200), CD70 ECD on CM5 chip, IgG as analyte
Procedure: (§1) The immobilization of antigen CD70 ECD was performed at 25° C. with HBS-EP as the running buffer. Sensor chip surface of flow cells 1, 4 were activated by freshly mixed 50 mmol/L N-Hydroxy succinimide (NHS) and 200 mmol/L 1-ethyl-3-(3-dimethylaminopropyl) carbodiimide hydrochloride (EDC) for 420s (10 μL/min). Afterwards, CD70 antigen diluted in 10 mmol/L NaAC (pH 4.5) was injected into flow cell 4 to achieve conjugation of the appropriate Response Unit, while flow cell 1 was set as a blank. After the amine coupling reaction, the remaining active coupling sites on chip surface were blocked by 420s injection of 1 mol/L ethanolamine hydrochloride.
(§2) The assay was performed at 25° C. and the running buffer was HBS-EP. Diluted antibodies were injected over the surface of flow cells 1 and 4 during the association phase, followed by injecting running buffer as the dissociation phase. All the data were processed using Biacore T200 Evaluation software version 3.1. Flow cell 1 and a blank injection of buffer in each cycle were used as a double reference for Response Units subtraction. Kinetic data of the interaction between the antibodies and CD70 antigen were obtained through affinity measurement.

[2] = target: T2, cynomolgus CD70 recombinant protein; assay: ELISA, IgG titrated on coated cynomolgus CD70 recombinant protein (2 µg/ml), anti-human Fc-HRP, OD450
Procedure: (§3) The binding specificity of the CD70 antibodies was tested by ELISA according to a standard protocol. Briefly, 96-well micro-plates were coated with 2 μg/ml of human or cynomolgus CD70 recombinant protein in PBS at 100 μl per well and incubated overnight at 4° C. The plates were washed twice with TBS+0.5% Tween20. 200 μL of blocking buffer (2% BSA in PBS) was added to each well, and the plates were incubated at 37° C. for 2 hours. The plates were washed using the wash buffer mentioned above. Serially diluted antibodies were added to the ELISA plates using 100 μl per well, and the plates were incubated for 1 hour at room temperature. Then plates were washed 3 times. HRP conjugated anti-human Fc antibody solution (Sigma, I18885-2ML, diluted with blocking buffer) was added to the plates using 100 μl per well. The plates were incubated at room temperature for 1 hour and then washed 3 times. Then the TMB solution was added to plates using 100 μl per well and the plates were placed at RT for 5-15 mins. Then the stop solution (2M H2SO4) was added using 50 μl per well. The absorbance was measured at A450 and A630.

[3] = target: T3, human CD70 expressed on the cell …; assay: cell-based or functional assay
[4] = target: T3, human CD70 expressed on the cell …; assay: flow cytometry on U251 cells
Procedure: (§4) The lead antibodies were tested for binding to renal carcinoma cells and glioblastoma cells expressing CD70 on the cell surface by flow cytometry. […] U251 cells were cultured with MEM medium containing of 10% FBS and 1% NEAA+1 mM sodium pyruvate. DBTRG-05MG cells were cultured with DMEM medium (Gibco, Cat #C11995500BT) containing of 10% FBS. Each of the lead antibodies and the controls were incubated for 30 mins with the different cell lines (3×10⁵ cells per well) in 0.2 ml FACS buffer (1×PBS with 0.1% BSA) at 4° C. Then, the cells were pelleted, washed, and incubated at 4° C. for 30 mins with 100 μl of 1:200 diluted PE-conjugated anti human Fc (Abcam, Ab98596) in FACS buffer. The cells were pelleted again, washed with PBS, resuspended in FACS buffer and analyzed by flow cytometer (Beckman, CytoFLEX).
(§5) Antibodies 2H8 and 2D2 had slightly higher binding ability to the cell lines than that of antibody 69A7.

[5] = target: T3, human CD70 expressed on the cell …; assay: flow cytometry on 786-O cells
Procedure: as §4, §5

[6] = target: T3, human CD70 expressed on the cell …; assay: flow cytometry on Caki-1 cells
Procedure: as §4, §5

[7] = target: T3, human CD70 expressed on the cell …; assay: flow cytometry on DBTRG-05MG cells
Procedure: as §4, §5

[8] = target: T4, human CD70 extra-cellular domain (ECD) …; assay: BLI (Octet RED), antibody on anti-human Fc tips, CD70 ECD-His at 100 nM
Procedure: Recombinant proteins consisting of human, rat, or mouse CD70 extra-cellular domain (ECD) linked to His tag was purchased (from ACRO systems). 69A7 and 2E7 (20 nM) were immobilized on anti-human IgG Fc biosensor tips (ForteBio). Binding assays using one concentration (100 nM) of recombinant protein in solution were performed using Octet RED (ForteBio). Association time was set at 180s and dissociation time was set at 300s. Binding affinity was calculated using ForteBio Data Acquisition 6.3 software. Affinity was derived by fitting the kinetic data to a 1:1 Langmuir binding model utilizing global fitting algorithms. […] 2E7 had no cross-reactivity to rat or mouse CD70 (Table 10).

[9] = target: T3, human CD70 expressed on the cell …; assay: flow cytometry on U251 cells, PE anti-human Fc, MFI; same fit as Table 6, which prints it in nM
Procedure: as §4, §5

[10] = target: T5, human CD70 recombinant protein; assay: ELISA, IgG titrated on coated human CD70 recombinant protein (2 µg/ml), anti-human Fc-HRP, OD450
Procedure: as §3

[11] = target: T3, human CD70 expressed on the cell …; assay: flow cytometry on 786-O cells, PE anti-human Fc, MFI; same fit as Table 6, which prints it in nM
Procedure: as §4, §5

[12] = target: T3, human CD70 expressed on the cell …; assay: flow cytometry on Caki-1 cells, PE anti-human Fc, MFI; same fit as Table 6, which prints it in nM
Procedure: as §4, §5

[13] = target: T3, human CD70 expressed on the cell …; assay: flow cytometry on DBTRG-05MG cells, PE anti-human Fc, MFI; same fit as Table 6, which prints it in nM
Procedure: as §4, §5

[14] = target: T1, CD70 ECD (antigen immobilized on the …); assay: SPR (Biacore T200), CD70 ECD on CM5 chip; lower end tied to 2D2 by the KD values of Table 8
Procedure: as §1, §2

Binder | Kd [1] | koff [1] | kon [1] | EC50 [2] | Internalization rate (%) on 786-O [3] | Internalization rate (%) on Caki-1 [3] | EC50 [4] | EC50 [5] | EC50 [6] | EC50 [7] | Kd [8] | koff [8] | kon [8] | EC50 [9] | EC50 [10] | EC50 [11] | EC50 [12] | EC50 [13] | fold improved affinity against parent antibody 69A7 [14]
1F6 (Vorsetuzumab), reference antibody, full IgG (antibody, V domains shown, also called h1F6; h1 F6) VH: QVQLVQSGAEVKKPGASVKVSCKASGYTFTNYGMNWVRQAPGQGLKWMGWINTYTGEPTYADAFKGRVTMTRDTSISTAYMELSRLRSDDTAVYYCARDYGDYGMDYWGQGTTVTVSS VL: DIVMTQSPDSLAVSLGERATINCRASKSVSTSGYSFMHWYQQKPGQPPKLLIYLASNLESGVPDRFSGSGSGTDFTLTISSLQAEDVAVYYCQHSREVPWTFGQGTKVEIK | 52.3 nM | 0.00236 s⁻¹ | 45100 M⁻¹ s⁻¹ | 0.00284 µg/mL | – | – | – | – | – | – | – | – | – | – | – | – | – | – | –
69A7 (parent antibody), full IgG (antibody, V domains shown, also called parent antibody 69A7) VH: QVQLQESGPGLVKPSETLSLTCTVSGGSVSSDYYYWSWIRQPPGKGLEWLGYIYYSGSTNYNPSLKSRVTISVDTSKNQFSLKLRSVTTADTAVYYCARGDGDYGGNCFDYWGQGTLVTVSS VL: EIVLTQSPATLSLSPGERATLSCRASQSVSSYLAWYQQKPGQAPRLLIFDASNRATGIPARFSGSGSGTDFTLTISSLEPEDFAVYYCQQRSNWPLTFGGGTKVEIK | 313 nM | 0.00198 s⁻¹ | 6330 M⁻¹ s⁻¹ | 0.0104 µg/mL | 64% | 27% | 8.11 nM | 6.49 nM | 9.89 nM | 11.3 nM | 2.89 nM | 0.000978 s⁻¹ | 339000 M⁻¹ s⁻¹ | 1.22 µg/mL | 0.278 µg/mL | 0.973 µg/mL | 1.48 µg/mL | 1.7 µg/mL | –

More lines, now with the values ahead:

Kd [1] | koff [1] | kon [1] | EC50 [2] | Internalization rate (%) on 786-O [3] | Internalization rate (%) on Caki-1 [3] | EC50 [4] | EC50 [5] | EC50 [6] | EC50 [7] | Kd [8] | koff [8] | kon [8] | EC50 [9] | EC50 [10] | EC50 [11] | EC50 [12] | EC50 [13] | fold improved affinity against parent antibody 69A7 [14] | Binder
– | – | – | – | 49% | 20% | – | 142 nM | 284 nM | 494 nM | – | – | – | – | 9.1 µg/mL | 21.3 µg/mL | – | – | – | 2A4, full IgG (antibody, V domains shown) VH: QVQLQESGPGLVKPSETLSLTCTVSGGSVSSDYYYWSWIRQPPGKGLEWLGYIYYSGSTNYNPSLKSRVTISVDTSKNQFSLKLRSVTTADTAVYYCARGDGDYGGNVFPYWGQGTLVTVSS VL: EIVLTQSPATLSLSPGERATLSCRASQSVSSYLAWYQQKPGQAPRLLIFDASNRATGIPARFSGSGSGTDFTLTISSLEPEDFAVYYCQQRSNWPLTFGGGTKVEIK
43.7 nM | 0.00112 s⁻¹ | 25600 M⁻¹ s⁻¹ | 0.00326 µg/mL | 76% | 62% | 7.99 nM | 5.12 nM | 5.65 nM | 9.6 nM | – | – | – | 1.2 µg/mL | 0.0595 µg/mL | 0.767 µg/mL | 0.847 µg/mL | 1.44 µg/mL | – | 1H8, full IgG (antibody, V domains shown) VH: QVQLQESGPGLVKPSETLSLTCTVSGGSVSSDYYYWSWIRQPPGKGLEWLGYIYYSGSTNYNPSLKSRVTISVDTSKNQFSLKLRSVTTADTAVYYCARGDGDFMGVCFDYWGQGTLVTVSS VL: EIVLTQSPATLSLSPGERATLSCRASQSVSSYLAWYQQKPGQAPRLLIFDASNRATGIPARFSGSGSGTDFTLTISSLEPEDFAVYYCQQRSNWPLTFGGGTKVEIK
89.6 nM | 0.00105 s⁻¹ | 11700 M⁻¹ s⁻¹ | 0.00424 µg/mL | 76% | 53% | 7.38 nM | 5.62 nM | 5.98 nM | 13.7 nM | – | – | – | 1.11 µg/mL | 0.087 µg/mL | 0.842 µg/mL | 0.896 µg/mL | 2.06 µg/mL | 3 to 8 fold | 2D2, full IgG (antibody, V domains shown) VH: QVQLQESGPGLVKPSETLSLTCTVSGGSVSSDYYYWSWIRQPPGKGLEWLGYIYYSGSTNYNPSLKSRVTISVDTSKNQFSLKLRSVTTADTAVYYCARGDGDYGGNCFDYWGQGTLVTVSS VL: EIVLTQSPATLSLSPGERATLSCRASQSVSSYLAWYQQKPGQAPRLLIFDASNRATGIPARFSGSGSGTDFTLTISSLEPEDFAVYYCQQRLKFPLTFGGGTKVEIK
